B1: MX2 (peptide)
peptide: GRSQIWYDQELVRSGDVNAAYR
B2: MX4 (peptide)
peptide: GRSQIWYDQELVRYADVNAAYR
B3: MX6 (peptide)
peptide: GRSQIWYVQELVRSGDVNHAYR
B4: MX3 (peptide)
peptide: GRSQIWYDQELVRSGDENAAYR
B5: MX7 (peptide)
peptide: GRSEIWYDQELVRSGDVNAAYR
B6: MX1 (peptide)
peptide: GRSQIWYVQELVRGGDVNHAYR
B7: MX5 (peptide)
peptide: GRSQIWYDQELVRYGDVNAAYR
B8: M9 (peptide)
peptide: GRSQYEVIQELIRIGDIVLAYF
B9: M3 (peptide)
peptide: GRSLYEYIQELIRIGDEVTAYF
B10: M4 (peptide)
peptide: GRSLLEYIQELIRIGDEVIAYF
B11: M1 (peptide)
peptide: GRSELEVVQELVRIGDIVVAYF
B12: M11 (peptide)
peptide: GRSEYEYIQELIRIGDIVDAYF
B13: M12 (peptide)
peptide: GRGQYEYIQELIRIGDIVDAYF
B14: M2 (peptide)
peptide: GRSEYEYIQELVRIGDEVDAYF
B15: M6 (peptide)
peptide: GRGQLEYIQELIRIGDIVDAYF
B16: M10 (peptide)
peptide: GRSEYEYIQELIRIGDNVDAYF
B17: M7 (peptide)
peptide: GRSELEYIQELIRIGDNVDAYF
B18: M8 (peptide)
peptide: GRSELEYIQELIRIGDIVDAYF
B19: M5 (peptide)
peptide: GRSELEYIQELVRIGDEVDAYF
B20: X2 (peptide)
peptide: GQTLIWYGAQLRRYADEFAKQR
B21: X1 (peptide)
peptide: GQTLIWYGASLRRYADEFAKQR
B22: X8 (peptide)
peptide: GQSMIWYGASLRRAADEFAKQR
B23: X9 (peptide)
peptide: GQTLIWYGAQLRRYADDFAKQR
B24: X5 (peptide)
peptide: GQTAIWYGASLRRAADEFAKQR
B25: X4 (peptide)
peptide: GQTLIWYGAQLRRVADDFAKQR

target: T1, human Mcl-1 (residues 172-327) (human, UniProt Q07820 172-327); experiment: yeast surface display
T1 construct: range 172-327
T1 sequence (Q07820 172-327 limits assumed): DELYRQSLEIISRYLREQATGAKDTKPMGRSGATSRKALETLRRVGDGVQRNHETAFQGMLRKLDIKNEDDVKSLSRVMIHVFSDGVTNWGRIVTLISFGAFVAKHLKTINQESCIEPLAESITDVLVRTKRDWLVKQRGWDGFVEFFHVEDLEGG

binding result	Binder
no binding	B1
no binding	B2
no binding	B3
no binding	B4
no binding	B5
no binding	B6
no binding	B7

target: T2, human Bcl-xL (residues 1-209) (human, UniProt Q07817 1-209); experiment: yeast surface display
T2 construct: range 1-209
T2 sequence (Q07817 1-209 limits assumed): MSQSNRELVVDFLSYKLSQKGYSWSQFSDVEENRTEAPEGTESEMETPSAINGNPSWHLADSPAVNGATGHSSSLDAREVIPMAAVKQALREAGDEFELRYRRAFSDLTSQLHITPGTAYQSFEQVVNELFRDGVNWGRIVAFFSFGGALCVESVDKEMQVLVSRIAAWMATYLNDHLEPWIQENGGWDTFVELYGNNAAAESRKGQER

binding result	Binder
no binding	B1
no binding	B2
no binding	B3
no binding	B4
no binding	B5
no binding	B6
no binding	B7

target: T1, human Mcl-1 (residues 172-327); experiment: yeast display, sparse titration, apparent KD;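 further: designs displayed on the yeast cell surface, binding of soluble target protein measured at four concentrations spanning nanomolar to micromolar, apparent KD estimated from this sparse titration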
Protocol: (§1) We measured binding of the designs to 1, 10, 100 or 1000 nM of Bcl-xL, Mcl-1 and Bfl-1 using yeast cell-surface display.

Kd	Binder
< 100 nM	B8
< 100 nM	B9
< 100 nM	B10
< 100 nM	B11
< 100 nM	B12
< 100 nM	B13
< 100 nM	B14
< 100 nM	B15
< 100 nM	B16
< 100 nM	B17
< 100 nM	B18
< 100 nM	B19

target: T2, human Bcl-xL (residues 1-209); experiment: yeast display, sparse titration, apparent KD;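 further: designs displayed on the yeast cell surface, binding of soluble target protein measured at four concentrations spanning nanomolar to micromolar, apparent KD estimated from this sparse titration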
Protocol: as §1

Kd	Binder
< 100 nM	B20
< 100 nM	B21
< 100 nM	B22
< 100 nM	B23
< 100 nM	B24
< 100 nM	B25

Source: US20200262914A1 (MIT, published 2020)
